From the DeepSol protein solubility set

assay: soluble on expression in E. coli; label from the status in PepcDB or PDB records

| Sequence | soluble on expression in E. coli |
| --- | --- |
| MLITHLIDSLSDRAVITPLTPTSVIIYDKNELKVYVGFTNNRNSLEYTKEVVLLLSTEIPKKAEIREIIVSKNGDYVILEGPRSLFVVRIGAEILVAKPDRLPSECFCECYPLHDSLLLQNISLSVVKVRLLPEKCDEKTFVTAVLFSDNCIRFYNLQKKFDSLLLAVDFRNHLHQVHDENVANNTFGLQKALVSFDLIPPKPNTSHFSIISIDSDCDFYTSFVHFSCFKEGYAPRIHRIEPVDGLPCDPLDLRYIQTTNPRICSVFVLVSGGGVLSHLVVFPNEFGEFRFLVKDQLRLPSSNGDPRIVQNQIRSLKVSRYEIATSSSLFSVNIFPWFEALTSISPTSTLEKETRVSELVDAVIPSDELSNTTKWTGARALRAVSVQLTQSLATEEEELLPESENIMHLVILENKDGQPAHLFNISTFDNIWSTENKTSFGRDSVSQPPMKSTGSLEQQLAALKPLAACVISEKVSCEEAIDAAMKFFDAVDERLKKHCEISKLFVERCLAVSSSAQALDEKQQSVDQRLIEETNTVEELKIRMHETKERMEGARKGINVLFHRVDENVPLSDNEIRIFERLKEHQKMLSDMTKLVPKMTLDSNEIHRMANIVLKKRGTGEEQNRFAAVEKNATEIESLEARENKLNTGISELSI | not soluble |
| PDSAVVRIHSSSGTTGKPVIIPYTRNDVDTWAELMMRCYMLAGLTNQDRIQITPGYGLWTAGIGFQLGAERLGAMAIPTGPGNTEKQLEMLVDLKTTALASTSSYALLLAEEIEKRGLKDRIHLRTGVIGSERWSEKMRSRIENELGIETFDIYGLTEIYGPGIALDCSYHEGMHYW | not soluble |
| MHTPVTIIGAGLGGLTLARVLHVHAIPVTVYEADSSPSARAQGGLLDIHDYNGQLAVEAAGLTDEFRAIVLEGRQALRVLDPDGTVRLDRADDGTGGRPEVQRGDLRQILLDSLPAGTVRWGHKVSRARPLGDGRHEVTFADGGTVVTRLLVGADGAWSRVRPLLSSATPEYVGKSVVETYLFDAGTRHPVAAKTVGGGMLIAPAPGKEIFAHREKDDTLHAYVGLSRPLDWFAGIDFTDGAAATARIAREFDGWATELTALITDTDVAPALRALHALPAGHRWERVPGVTLLGDAAHLAAPNGEGANLAMLDGAELGTALAAHPGDVEAALAEYERAMFPRSAEAAGDDMIGMDSPDNTAQGLIDLITENGGLEHHHHHH | soluble |
| MLQRTLAKSISVTGVGLHSGERVALTLHPAPENSGISFRRTDLDGEMGEQIKLTPYLINDTRLSSTIVTDKGVRVGTIEHIMSALSAYGIDNALIELNAPEIPIMDGSSLPFIYLLQDAGVVDQKAQKRFLKILKPVEIKEAGKWVRFTPYDGFKVTLTIEFDHPVFNRSSPTFEIDFAGKSYIDEIARARTFGFMHEVEMMRAHNLGLGGNLNNAIVIDDTDVLNPEGLRYPDEFVRHKILDAIGDLYIVGHPIIGAFEGYKSGHAINNALLRAVLADETAYDRVEFADSDDLPDAFHELNIRTCGLEHHHHHH | not soluble |
| GPGSMSDVKSKEAGANPAASKSGSGEDVAETKLAVPRSLDTGSKKHPLNSSWTLWYDSLSTYDSERWELSLVEVITVRTVEEFFTMLHYCKPPHVLRVSAQYHFFREGVKPMWEDPSNKAGGKLWISLDDKPVGDVGGRKWENANTGGAAGGEKDNASAATNNSNSNQNAKAKKEEQETEKKPELDTMWENLLMAMVGEYLDPEPDGDHIMGLVLSRRKYHNRIALWLRDASASEAVARIEKKLVKEAGLPPAMKFIFTPHSTGK | soluble |
| ARLKHLEDEPGHEDEGKRPLFHFSAVERIARIGVPSMIQQSIVSISMLMMQGLVNSYGSVFIAGYTAATKIDSLAMMPNMNFSNAMSSYTAQNIGAGKIERVKDGYKANM | not soluble |
| MTEGLAVELAGLRSFSIVMPAYNVVTQRGERIFRETLESIAASCRYLQQHFPYTPEGELILISDGSTDRTCDVAMAGWPNAVPLQLVGLPTNVGIAAARNIGVRLAKGEVIFFCDADDLYRPEHLFLALSVLNQPLPEPYAPAYFGAVRTGVYCRDRLHPYWHKSLEQTLVLNLAVRREVHEFIGGFPEDEVFRQFRYGAEDVAYAYWLHQFCHTARLEQRTVEYRRFPNSVFDRQLKKFQAAPGTVADDLDEGDRQQEAQIRQIMATRLQELQAKAAQGVALEHHHHHH | not soluble |
| PFSFCRRIYLPTDLRSYPSVRNVLIHEQEHTRATHFVDLLIAEVACMLFWFNPFAWALKRDMQRNLEFLADRAVLLRGVSRREYQYELL | not soluble |
| MRRFDCTVVAIHDDASLGCRLPGANKALRIQLNAVELPAAEPWRRRAREALEDMLLGKSATIREQGRDARFRILGAAWVTPADCPTCGHTLDAGLALLTIGLASWRDAPDSGQTAEARGQYRFAEEEARARKAGQWRP | soluble |
| MVRVEDSNGADTDTNPEGESSGYVRLAGNGLPGGEQQQASSSGVAAAPSVDSSPGRSVPLAIASSSSPANVANNQYAIPVDENGHRYVGLVNQAMTCYLNSLVQSLYMTPEFRNAMYDWEYVQQPAHIKEQRKKAEQSIPCQLQKLFLLLQTSENDSLETKDLTQSFGWTSNEAYDQHDVQELCRLMFDALEHKWKGTEHEKLIQDLYRGTMEDFVACLKCGRESVKTDYFLDLPLAVKPFGAIHAYKSVEEALTAFVQPELLDGSNQYMCENCKSKQDAHKGLRITQFPYLLTIQLKRFDFDYNTMHRIKLNDKMTFPDVLDLNDYVNKEKRSTTSSAWQQIGKNKSENEEDDMELGSPNPKRCTPGVQSPNRYQGSENVCVGQPIDHAAVDDIVKTSGDNVYELFSVMVHSGNAAGGHYFAYIKNLDQDRWYVFNDTRVDFATPLEIEKSFGGHPSGWNQSNTNAYMLMYRRIDPKRNARFILSNQLPQHIKDSQEKWKRLEREAEDERLRKLSLIQVYVTINYPFPSVVTLPDKKQLDLTPQKYQIAEDFGEYKTEISREMPIKNVFNHAFEFFNERARAYNLPFTKNSARLIYVEHGSLMMDFKSKADMDKKLRSVFNVNHGEPGSMYGVHFILDVRIASSFFPVDIKNKITIKVQRVDIGKKTTANELIVVVDANEKMIKVKSWIGGQFRDDIHGVLNARVVLEVASSRCEFMMIDVSHNATEFGSLIQQYVGHTTPTLYYDGGLNTMVTKESQEATLADRKLPFDKSVMYHILDRKCFSTMVKVRLPSQEEIEKAASTKNAYQGPTWAETIAIMKEEDRLWNEPRAAVEVMSTVSRTDTTDHALVADTDDEPIPSGRGSTASMRSVSMDDIDADIGISGSLCNNTPQMSPCVSEGDDADESQLDGKSQLMSDYMQKTSPDFYYNRDPQNHLNKNLKIALGDETPSESLSAVSSGQSTLVPSTSNQALSSMTRSDEAVDGKIVTVFSHENFHKLDVDSRMRVLEFKKWVAEQLEMDKDQFVIVKHASDDGSDSGYEANFMDDETVSGAFQSCFISIKLRAPLKSDEKMMQIILFDILENLRENWKPLFELPVSQSTVIGDVLLQCLRMYKEVYGEELTPKMVRLRELGGSGVGTGRAVLNPNDTLEKRSYNWCSHLYLQIITDEAMIGKPGEPIMVRRFRPSTVEVNPTHEVLVDANAENPVVSFVEALSKISGIPVERLAITDLKEFNWQKWPYLKSRLDMLENKVNFTKDLQVTYPLPREFLDKVGSRVLYYKDSDEEAKVLSEDERKQIKIKENGQSANANRRKERPLRIQMSSVCEA | not soluble |
| MGSDKIHHHHHHMTSALSEAGGYPPEGQGAYFLCDIFDAMPKNDLASMEHPLFSLSTRPDRRILNYEHNGAEITVTPSVKGLATIHDKDILIFCVSQLMAALNAGRQVSRVLHLTAHDLLVACNRETSGDAYRRLRESFERLAGTRITTNITTGGQEITTGFGLIESWEIVRKARGGRMVSVAVTLSDWLYRAVLSKSVLTLSRDYFRLRKPLERRIYELARKHCGRQDSWQISVETLLKKSGSASPRRVFRKMVRDMIESQPLPDYEMAELEGDIIRFSQKAAVVDVPPPVISEAARDEARRLMPGVDVHALEADWRATWARTGAPRLRKPDAAFVGWVRKRMND | not soluble |
| MGSDKIHHHHHHMQDFLEFQSISKGYPGVQALSEVSFSVRKGAVHGLMGENGAGKSTLIRVLSGDQAADTGEIRINGEPQHYRSVRDAFNAGVIVIHQELQLVPELTVAENLWLGRFPGKAGVIDRRQLIRVVSDRLAEIGIDVDPEAKVASLSIGERQMVEIAKAVMTDARVIALDEPTSSLSSRESEILFALIDRLRSNGTVILYVSHRLDEIFRLCNSLTVLRDGRLAAHHPDISKVGREQIIAEMVGREISNIWGWRARTLGAARLTVERVSGANLPQPISFTVRAGEILGFFGLIGAGRSEMARLVYGADRRRQGKVLVDGLAVPADSPRLSIRAGVVLCPEDRKFDGIVQGRSIEENMAISSRRHFSPFGVVDKGKEAELAERFIAKLRVRTPSRHQDIVNLSGGNQQKVILGRWLSEEGVKVLLIDEPTRGIDVGAKSEIYEILYELAAQGMAIVVISSELPEVMGIADRILVMCEGRIAAEIDRSDFDEHRILAAALPDASATTATLPEQVS | not soluble |
| MSSSRHFSIPYDEDVVHSVILENTPSPPPKPPRGILRKEAPMKPQRSALKIEPARDDDKENNSQPQARSQFKAKDTMEQMQSYFKRSISVLRKSEEHFTGAEAADILTAYIETHRNEFPRDNIGRSNAVKLLEIWLESNTIQSVESHQKKFVDSERTFYRLGGDSESLYIVNTPIASRNHDDSASVSRSESSRRSNSIKRLFSPFVRRNRSNSRGRDKDKDNLKDGSSTNLKSTWSLFSSSSEKNEKKLKKAEQQLIKEEEAEVYELSLFHLLSLIDVEFLEDVALPVQDSKNNASFLSSILGKVGLGASEERLDPHQEDHMDLLIETHPLIRDASQWFQMARCCAPLLYFEAKPVASNHKTSHNEQLYLWCRAALDAVKNRLEKMTQNGSSPLFPSEFAPLLTKIAQQLINDMDSGEKLSTAVMYIFLMVPHPIRKTIDQLVQWLQLTMRTDAVEDLRSPYYLGKKDPRRYKENVNVIIGELSSFIFPRGCMTNVQQDIFIETLVELRQKGKLGQRPAQLESSLRAKSVNGQIKWQRKERKHNSLEGDLTPVRYTVRRESIRSKTSKSKDGLNETDSALVTMINSVIDNKELSLTEKKKQLMNFKKFYPKLYNDFFPGMI | not soluble |
| MSLNKEQLKSLVIKTIDENREKILKIGQGIYKNPEYGYKEFKTTEAVSNFFEQELNLSVEKNIAVTGCKADANSSKKGPHISILGELDGISCKEHKDANEIGASHTCGHNIQIAGMLGAAVGLVKSGVLEHLDGKVSFMATPAEEFIELEYREQLKKEGKITYFGGKQELIKRGYFDDIDISMMFHASDLGEDKALVGPESNGFVGKKVKFIGKESHAGSAPHDGINALNAAMLAINNVNALRETFKESERVRFHPIITKGGDIVNVVPADVHMESYVRARTINGMIDANERINKALMAGGMAVGADVEITEIPGYLPILRYKSLDNLFKNNLEDLGLKGKVIDGGDFTGSFDFGDVSHIMPTLHPMIGGVKGALHTRDFEIVDEDLAYIIPAKAMALTVVDLLFDNAKDAKDILDTFTPVMTKKEYLTFLEKHDKTEGHHHHHH | soluble |
| DADLATGAKVFSANCAACHAGGINLVNAEKTLKKEALEKFGMNSIVAITTQVTNGKAGMPAFKGRLTDDQIAAVAAYVLDQAEKGW | soluble |
| SHMSLTPDQIVAALQERGWQAEIVTEFSLLNEMVDVDPQGILKCVDGRGSDNTQFCGPKMPGGIYAIAHNRGVTTLEGLKQITKEVASKGHVPSVHGDHSSDMLGCGFFKLWVTGRFDDMGYPRPQFDADQGAKAVENAGGVIEMHHGSHAEKVVYINLVENKTLEPDEDDQRFIVDGWAAGKFGLDVPKFLIAAAATVEMLGGPKKAKIVIP | soluble |
